{"source": "patent US20210032351A1", "about": "(XDCEXPLORER SHANGHAI, published 2021)", "key": {"[1]": {"target": "T1, human EGFRvIII-hFc protein (human, UniProt P00533 25-645)", "T1 construct": "extracellular domain; also called immunogen A; hFc-tagged EGFRvIII protein; not shown: human IgG Fc fragment (hFc) of the pCpC vector", "assay": "ELISA, EGFRvIII-hFc coated"}, "[2]": {"target": "T2, human EGFRvIII protein on the cell surface (human, UniProt P00533 25-1210)", "T2 construct": "whole, on cells; the cell line is named under assay; also called hEGFRvIII; U87MG-hEGFRvIII", "assay": "FACS on U87MG-EGFRvIII cells", "method_in_brief": "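U87MG-EGFRvIII, A431 and primary human hepatocytes (2×10⁶ cells/mL, goat-serum blocked) were incubated with antibody on ice for 2 h, then with an Alexa 488 secondary (1:1000) for 1 h and fixed in 4% paraformaldehyde. Mean fluorescence intensity was read by flow cytometry, and EC50 was derived by curve fitting.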"}, "[3]": {"target": "T2, human EGFRvIII protein on the cell …", "assay": "FACS on U87MG-hEGFRvIII cells"}, "[4]": {"target": "T3, human wild-type EGFR protein on the cell surface (human, UniProt P00533 25-1210)", "T3 construct": "whole, on cells; Endogenous on A431, HEB, U87MG cells and normal human primary hepatocytes; transfected on CHOk1-EGFR cells; The cell is named under assay; also called A431; HEB", "assay": "FACS on A431 cells; A431 cells (large amount of wild-type EGFR on the surface)", "experimental": "The cells are washed twice with the HBSS buffer and are counted, and then the cells are diluted with the HBSS buffer to 2×10⁶ cells/ml, added with 1% goat serum blocking solution, with the percentage being the mass percentage, and incubated on ice for 30 minutes, and then centrifugally washed twice with the HBSS buffer. The collected cells are suspended to 2×10⁶ cells/mL with an FACS buffer (HBSS+1% BSA, with the percentage being the mass percentage), added to a 96-well FACS reaction plate at 100 μL/well, then added with 100 μL/well of the purified EGFRvIII antibody (samples to be tested) obtained in example 2, and incubated on ice for 2 hours. The plate is centrifugally washed twice with the FACS buffer, added with 100 μL/well of a fluorescence (Alexa 488) labeled secondary antibody (purchased from Invitrogen), and then incubated on ice for 1 hour. The plate is centrifugally washed 3 times with the FACS buffer, added with 100 μL/well of a fixing solution [4% (v/v) paraformaldehyde] for suspending the cells, and centrifugally washed twice with the FACS buffer after 10 minutes. The cells are suspended in 100 μL of the FACS buffer, and the results are detected and analyzed by FACS (FACS Calibur, purchased from BD). Data analysis is performed by using the software (CellQuest) to obtain the mean fluorescence intensity (MFI) of the cells. Data is further analyzed by using the software (GraphPad Prism5) to perform data fitting and calculate EC50. […] A431 cells (human epidermal cell cancer cell lines) have a large amount of wild-type EGFR protein expressed on the surface thereof. […] U87MG cells (human glioma cell lines) have a small amount of wild-type EGFR protein expressed on the surface thereof, while HEB cells (human glioma cell lines) have a high level of wild-type EGFR protein expression on the surface thereof."}}, "data": [{"binder": "Chimeric antibody 75G7 (antibody, human IgG1, V domains shown, also called c75G7C6; chimeric antibody c75G7C6) VH: EVQLQQSGPELVKPGASVKIPCKASGYTFTDYNMDWVKQSHGKSLEWIGDINPNNGDTIYNQKFKGKATLTVDKSSSTAYMELRSLTSEDTAVYYCARGDYDGYYPVYYAMDYWGQGTSVTVSS VL: ENVLTQSPAIMSASPGEKVTMTCRASSSVSSSYLHWYQQKSGASPKLWIFSTSNLAAGVPARFSGSGSGTSYSLTVSSVEAEDAATYYCQQYSGYPLTFGAGTKLELK", "values": [{"measurement": "EC50", "setting": "[1]", "result": 0.5, "unit": "nM"}, {"measurement": "Maximum OD450 value", "setting": "[1]", "result": 2.5, "unit": "OD450"}, {"measurement": "EC50", "setting": "[2]", "result": 5.75, "unit": "nM"}, {"measurement": "Maximum mean fluorescence intensity", "setting": "[2]", "result": 18100, "unit": "MFI"}, {"measurement": "EC50", "setting": "[3]", "result": 6.1, "unit": "nM"}, {"measurement": "EC50", "setting": "[4]", "result": 13.4, "unit": "nM"}]}]}
